The source of these data is the supplement of paper PMC11246515.

± gives the standard deviation of the averaged measurements.

This series in a line: total protein half-life in vivo (active degradation + dilution); higher = more stable protein.
The mark [1] stands for this setting: E. coli NCM3722 delta-clpP delta-lon delta-hslV, growth: N-lim chemostat, doubling time 6 h.
[2] abbreviates: E. coli NCM3722 delta-clpP, growth: N-lim chemostat, doubling time 6 h.
The mark [3] stands for this setting: E. coli NCM3722 delta-hslV, growth: N-lim chemostat, doubling time 6 h.
Setting [4] is: E. coli NCM3722 delta-smpB, growth: N-lim chemostat, doubling time 6 h.
Setting [5] is: wild type E. coli NCM3722, growth: C-lim chemostat, doubling time 3 h.
[6] abbreviates: wild type E. coli NCM3722, growth: C-lim chemostat, doubling time 6 h.
Where [7] appears, read: wild type E. coli NCM3722, growth: C-lim chemostat, doubling time 12 h.
Where [8] appears, read: wild type E. coli NCM3722, growth: N-lim chemostat, doubling time 6 h.
[9] abbreviates: wild type E. coli NCM3722, growth: N-lim chemostat, doubling time 12 h.
[10] abbreviates: wild type E. coli NCM3722, growth: P-lim chemostat, doubling time 6 h.
The mark [11] stands for this setting: wild type E. coli NCM3722, growth: P-lim chemostat, doubling time 12 h.
Setting [12] is: E. coli NCM3722 delta-lon, growth: N-lim chemostat, doubling time 6 h.

As for “MIPVERRQIILEMVAEKGIVSIAELTDRMNVSHMTIRRDLQKLEQQGAVVLVSGGVQSPGRVAHEPSHQVKTALAMTQKAAIGKLAASLVQPGSCIYLDAGTTTLAIAQHLIHMESLTVVTNDFVIADYLLDNSNCTIIHTGGAVCRENRSCVGEAAATMLRSLMIDQAFISASSWSVRGISTPAEDKVTVKRAIASASRQRVLVCDATKYGQVATWLALPLSEFDQIITDDGLPESASRALVKQDLSLLVAKNE”, the “total protein half-life in vivo” value was determined as 5.5397 ± 0.0019 h under setting [1]; 4.93 ± 0.35 h under setting [2]; 4.72 ± 0.089 h under setting [3]; 4.76 ± 0.23 h under setting [4]; 2.62 ± 0.12 h under setting [5]; 5.33 ± 0.07 h under setting [6]. Besides, the “total protein half-life in vivo” value reads like this: under setting [7], 8.85 ± 0.59 h; under setting [8], 4.82 ± 0.13 h; under setting [9], 8.78 ± 0.59 h; under setting [10], 4.69 ± 0.52 h; under setting [11], 9.046 ± 0.035 h.
As for “MNIFEQTPPNRRRYGLAAFIGLIAGVVSAFVKWGAEVPLPPRSPVDMFNAACGPESLIRAAGQIDCSRNFLNPPYIFLRDWLGLTDPNAAVYTFAGHVFNWVGVTHIIFSIVFAVGYCVVAEVFPKIKLWQGLLAGALAQLFVHMISFPLMGLTPPLFDLPWYENVSEIFGHLVWFWSIEIIRRDLRNRITHEPDPEIPLGSNR [P0AAA1]”, the “total protein half-life in vivo” value was found to be 6.706 ± 0.025 h under setting [1]; 6.72 ± 0.32 h under setting [12]; 6.16 ± 0.29 h under setting [4]; 3.21 ± 0.28 h under setting [5]; 6.707 ± 0.0077 h under setting [6]; 14.5 ± 0.3 h under setting [7]. Also, the “total protein half-life in vivo” value by setting is: under setting [8], 5.96 ± 0.12 h; under setting [10], 6.57 ± 1.5 h; under setting [11], 13.7 ± 1.1 h.
As for “MLILLGYLVVLGTVFGGYLMTGGSLGALYQPAELVIIAGAGIGSFIVGNNGKAIKGTLKALPLLFRRSKYTKAMYMDLLALLYRLMAKSRQMGMFSLERDIENPRESEIFASYPRILADSVMLDFIVDYLRLIISGHMNTFEIEALMDEEIETHESEAEVPANSLALVGDSLPAFGIVAAVMGVVHALGSADRPAAELGALIAHAMVGTFLGILLAYGFISPLATVLRQKSAETSKMMQCVKVTLLSNLNGYAPPIAVEFGRKTLYSSERPSFIELEEHVRAVKNPQQQTTTEEA”, the “total protein half-life in vivo” value under setting [5] was 1.32 ± 0.061 h, the “total protein half-life in vivo” value under setting [6] is 1.57 h and the “total protein half-life in vivo” value under setting [7] was 2.1 h.
Consider “MNKYWLSGIIFLAYGLASPAFSSETATLAINGRISPPTCSMAMVNGQPQQHCGQLTYNVDTRHLFSSPVKGVTTEVVVAGSDSKRRIVLNRYD”, for which the “total protein half-life in vivo” value came to 1.53 h under setting [1], 0.626 ± 0.25 h under setting [4] and 0.465 h under setting [6].
As to “MRIGIDLGGTKTEVIALGDAGEQLYRHRLPTPRDDYRQTIETIATLVDMAEQATGQRGTVGMGIPGSISPYTGVVKNANSTWLNGQPFDKDLSARLQREVRLANDANCLAVSEAVDGAAAGAQTVFAVIIGTGCGAGVAFNGRAHIGGNGTAGEWGHNPLPWMDEDELRYREEVPCYCGKQGCIETFISGTGFAMDYRRLSGHALKGSEIIRLVEESDPVAELALRRYELRLAKSLAHVVNILDPDVIVLGGGMSNVDRLYQTVGQLIKQFVFGGECETPVRKAKHGDSSGVRGAAWLWPQE”, the “total protein half-life in vivo” value is, setting by setting: under setting [1], 5.21 ± 0.15 h; under setting [2], 5.38 ± 0.09 h; under setting [3], 6.33 ± 1.9 h; under setting [12], 5.67 ± 0.31 h; under setting [4], 5.3 ± 0.66 h; under setting [5], 2.8 ± 0.4 h. In addition, the “total protein half-life in vivo” value under setting [6] was 5.8 ± 0.29 h; the “total protein half-life in vivo” value under setting [7] worked out at 11.8 ± 2.8 h; the “total protein half-life in vivo” value under setting [8] came out at 5.18 ± 0.18 h; the “total protein half-life in vivo” value under setting [9] was 9.94 ± 4 h; the “total protein half-life in vivo” value under setting [10] came to 6.21 ± 0.56 h; the “total protein half-life in vivo” value under setting [11] is 11.7 ± 0.5 h.
In the case of “MFKEIFTRLIRHLPSRLVHRDPLPGAQQTVNTVVPPSLSAHCLKMAVMPEEELWKTFDTHPEGLNQAEVESAREQHGENKLPAQQPSPWWVHLWVCYRNPFNILLTILGAISYATEDLFAAGVIALMVAISTLLNFIQEARSTKAADALKAMVSNTATVLRVINDKGENGWLEIPIDQLVPGDIIKLAAGDMIPADLRILQARDLFVAQASLTGESLPVEKAATTRQPEHSNPLECDTLCFMGTTVVSGTAQAMVIATGANTWFGQLAGRVSEQESEPNAFQQGISRVSMLLIRFMLVMAPVVLLINGYTKGDWWEAALFALSVAVGLTPEMLPMIVTSTLARGAVKLSKQKVIVKHLDAIQNFGAMDILCTDKTGTLTQDKIVLENHTDISGKTSERVLHSAWLNSHYQTGLKNLLDTAVLEGTDEESARSLASRWQKIDEIPFDFERRRMSVVVAENTEHHQLVCKGALQEILNVCSQVRHNGEIVPLDDIMLRKIKRVTDTLNRQGLRVVAVATKYLPAREGDYQRADESDLILEGYIAFLDPPKETTAPALKALKASGITVKILTGDSELVAAKVCHEVGLDAGEVVIGSDIETLSDDELANLAQRTTLFARLTPMHKERIVTLLKREGHVVGFMGDGINDAPALRAADIGISVDGAVDIAREAADIILLEKSLMVLEEGVIEGRRTFANMLKYIKMTASSNFGNVFSVLVASAFLPFLPMLPLHLLIQNLLYDVSQVAIPFDNVDDEQIQKPQRWNPADLGRFMIFFGPISSIFDILTFCLMWWVFHANTPETQTLFQSGWFVVGLLSQTLIVHMIRTRRVPFIQSCASWPLMIMTVIVMIVGIALPFSPLASYLQLQALPLSYFPWLVAILAGYMTLTQLVKGFYSRRYGWQ [P0ABB8]”, the “total protein half-life in vivo” value under setting [1] was 6.31 h; the “total protein half-life in vivo” value under setting [2] worked out at 6.68 ± 0.68 h; the “total protein half-life in vivo” value under setting [3] turned out to be 6.44 ± 0.53 h; the “total protein half-life in vivo” value under setting [4] amounted to 5.89 ± 0.47 h; the “total protein half-life in vivo” value under setting [6] was 6.91 ± 0.4 h; the “total protein half-life in vivo” value under setting [7] turned out to be 14.8 ± 0.69 h. Further, the “total protein half-life in vivo” value reads like this: under setting [8], 6.72 ± 0.55 h; under setting [9], 14.4 ± 1.3 h; under setting [10], 6.71 ± 0.3 h.
On to “MKMVSRITAIGLAGVAICYLGLSGYVWYHDNKRSKQADVQASAVSENNKVLGFLREKGCDYCHTPSAELPAYYYIPGAKQLMDYDIKLGYKSFNLEAVRAALLADKPVSQSDLNKIEWVMQYETMPPTRYTALHWAGKVSDEERAEILAWIAKQRAEYYASNDTAPEHRNEPVQPIPQKLPTDAQKVALGFALYHDPRLSADSTISCAHCHALNAGGVDGRKTSIGVGGAVGPINAPTVFNSVFNVEQFWDGRAATLQDQAGGPPLNPIEMASKSWDEIIAKLEKDPQLKTQFLEVYPQGFSGENITDAIAEFEKTLITPDSPFDKWLRGDENALTAQQKKGYQLFKDNKCATCHGGIILGGRSFEPLGLKKDFNFGEITAADIGRMNVTKEERDKLRQKVPGLRNVALTAPYFHRGDVPTLDGAVKLMLRYQVGKELPQEDVDDIVAFLHSLNGVYTPYMQDKQ”, for which the “total protein half-life in vivo” value under setting [1] was > 8 h; the “total protein half-life in vivo” value under setting [2] was determined as 4.69 h; the “total protein half-life in vivo” value under setting [3] stood at 5.53 h; the “total protein half-life in vivo” value under setting [4] was 4.76 h; the “total protein half-life in vivo” value under setting [5] stood at 3.28 ± 0.2 h; the “total protein half-life in vivo” value under setting [6] turned out to be 5.27 ± 1 h. For the same sequence, the “total protein half-life in vivo” value reads like this: under setting [7], 12.2 h; under setting [8], 5.16 h; under setting [9], 10.8 h; under setting [10], 5.31 h; under setting [11], 11 ± 1.4 h.
With “MNEQNLKHVIALLLEDAKRLQQIEPNAGTEARILLAKQALKTCGAQAPGRTEFMNFMANTLTPLPCNGEKVSRVYHDTMVKALRIELDGLRRKIVMNEIVTN”, the “total protein half-life in vivo” value is, setting by setting: under setting [1], 4.2 h; under setting [2], 4.79 h; under setting [8], 4.61 h.
In the case of “MNKTEFYADLNRDFNALMAGETSFLATLANTSALLYERLTDINWAGFYLLEDDTLVLGPFQGKIACVRIPVGRGVCGTAVARNQVQRIEDVHVFDGHIACDAASNSEIVLPLVVKNQIIGVLDIDSTVFGRFTDEDEQGLRQLVAQLEKVLATTDYKKFFASVAG”, the “total protein half-life in vivo” value came to 4.82 ± 0.66 h under setting [1]; 4.43 ± 0.32 h under setting [2]; 4 ± 0.26 h under setting [3]; 4.523 ± 0.034 h under setting [12]; 4.22 ± 0.21 h under setting [4]; 3.22 ± 0.55 h under setting [5]. The “total protein half-life in vivo” value is 5.38 ± 0.12 h under setting [6]; 11.8 ± 3.1 h under setting [7]; 4.33 ± 0.57 h under setting [8]; 7.72 ± 0.91 h under setting [9]; 5.8 ± 0.83 h under setting [10]; 9.9 ± 0.11 h under setting [11].
